# Measured values reported in the supplement of paper PMC9112550, “Optimization of the antimicrobial peptide Bac7 by deep mutational scanning” (BMC Biology, 2022).
# Tested on: Escherichia coli TOP10
# Test: shrunken log2 fold change of peptide-encoding DNA abundance (4.5 h post-induction vs induction); higher = less antimicrobial activity (less host growth inhibition)
# Conditions: time post-induction: 4.5 h; library: site-saturation at positions 5, 18, 19, 20
# 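Further: peptides expressed intracellularly from a pBAD plasmid library in pooled LB shake-flask culture, induced with 0.3% L-arabinose, DNA abundance read by NGS, three biological replicates, DESeq2 with apeglm shrinkage.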
row,Sequence,shrunken log2 fold change
1,RRIRCRPPRLPRPRPRPWHNPRP,-0.244
2,RRIRQRPPRLPRPRPRPPSHPRP,0.0871
3,RRIRCRPPRLPRPRPRPNPFPRP,-0.024
4,RRIRDRPPRLPRPRPRPFDFPRP,0.122
5,RRIRNRPPRLPRPRPRPYMMPRP,-0.118
6,RRIRWRPPRLPRPRPRPLKIPRP,-0.195
7,RRIRWRPPRLPRPRPRPVFCPRP,0.119
8,RRIRLRPPRLPRPRPRPENAPRP,-0.000678
9,RRIRCRPPRLPRPRPRPYARPRP,-0.746
10,RRIRCRPPRLPRPRPRPTPFPRP,0.207
11,RRIRYRPPRLPRPRPRPNDTPRP,-0.921
12,RRIRHRPPRLPRPRPRPNYNPRP,-0.89
13,RRIRFRPPRLPRPRPRPNLKPRP,-0.553
14,RRIRRRPPRLPRPRPRPNYPPRP,0.0594
15,RRIRIRPPRLPRPRPRPKYSPRP,-0.216
16,RRIRQRPPRLPRPRPRPQIWPRP,0.0984
17,RRIRPRPPRLPRPRPRPCQPPRP,-0.0774
18,RRIRIRPPRLPRPRPRPLFFPRP,-0.374
19,RRIRKRPPRLPRPRPRPLDTPRP,0.000649
20,RRIRTRPPRLPRPRPRPVSHPRP,-0.265
21,RRIRTRPPRLPRPRPRPSFSPRP,-0.262
22,RRIRMRPPRLPRPRPRPVCFPRP,0.126
23,RRIRKRPPRLPRPRPRPVGAPRP,0.853
24,RRIRSRPPRLPRPRPRPHKCPRP,0.00997
25,RRIRERPPRLPRPRPRPCMTPRP,-0.00173

row,Sequence,shrunken log2 fold change
1,RRIRNRPPRLPRPRPRPVEEPRP,0.0471
2,RRIRIRPPRLPRPRPRPAIKPRP,-0.265
3,RRIRSRPPRLPRPRPRPEGLPRP,-0.0431
4,RRIRWRPPRLPRPRPRPIEAPRP,0.199
5,RRIRSRPPRLPRPRPRPSMIPRP,-0.625
6,RRIRNRPPRLPRPRPRPKIVPRP,-0.0195
7,RRIRCRPPRLPRPRPRPWTFPRP,-0.126
8,RRIRARPPRLPRPRPRPQLIPRP,0.184
9,RRIRVRPPRLPRPRPRPNHVPRP,-0.3
10,RRIRGRPPRLPRPRPRPNGFPRP,0.0031
11,RRIRFRPPRLPRPRPRPHQHPRP,-0.582
12,RRIRGRPPRLPRPRPRPAFDPRP,0.763
13,RRIRPRPPRLPRPRPRPRYVPRP,-0.24
14,RRIRWRPPRLPRPRPRPSVFPRP,0.222
15,RRIRPRPPRLPRPRPRPRWKPRP,0.176
16,RRIRKRPPRLPRPRPRPKLIPRP,0.0851
17,RRIRGRPPRLPRPRPRPSTSPRP,0.315
18,RRIRGRPPRLPRPRPRPIFCPRP,0.333
19,RRIRGRPPRLPRPRPRPTQDPRP,1.34
20,RRIRQRPPRLPRPRPRPHMSPRP,-0.28
21,RRIRQRPPRLPRPRPRPHIIPRP,-0.362
22,RRIRCRPPRLPRPRPRPRFAPRP,0.356
23,RRIRDRPPRLPRPRPRPLDDPRP,0.459
24,RRIRVRPPRLPRPRPRPWYEPRP,-0.337
25,RRIRTRPPRLPRPRPRPNWIPRP,-0.289

row,Sequence,shrunken log2 fold change
1,RRIRYRPPRLPRPRPRPHFGPRP,0.0439
2,RRIRCRPPRLPRPRPRPSIPPRP,-0.969
3,RRIRDRPPRLPRPRPRPCLKPRP,-0.000218
4,RRIRSRPPRLPRPRPRPDDSPRP,-0.237
5,RRIRNRPPRLPRPRPRPHVYPRP,-0.229
6,RRIRVRPPRLPRPRPRPRAVPRP,0.314
7,RRIRSRPPRLPRPRPRPTDTPRP,-0.214
8,RRIRLRPPRLPRPRPRPQGNPRP,-0.0463
9,RRIRPRPPRLPRPRPRPTLEPRP,0.393
10,RRIRSRPPRLPRPRPRPSWTPRP,-0.299
11,RRIRQRPPRLPRPRPRPAWEPRP,0.245
12,RRIRDRPPRLPRPRPRPNYVPRP,-0.147
13,RRIRCRPPRLPRPRPRPCKFPRP,-0.431
14,RRIRVRPPRLPRPRPRPFETPRP,-0.0538
15,RRIRDRPPRLPRPRPRPGLSPRP,0.241
16,RRIRRRPPRLPRPRPRPLHFPRP,0.397
17,RRIRMRPPRLPRPRPRPGMMPRP,0.185
18,RRIRLRPPRLPRPRPRPTNKPRP,-0.264
19,RRIRSRPPRLPRPRPRPCDGPRP,0.0333
20,RRIRLRPPRLPRPRPRPSYDPRP,-0.292
21,RRIRHRPPRLPRPRPRPKFYPRP,-0.148
22,RRIRIRPPRLPRPRPRPYSLPRP,-0.607
23,RRIRTRPPRLPRPRPRPFNEPRP,-0.311
24,RRIRVRPPRLPRPRPRPMHYPRP,-0.266
25,RRIRHRPPRLPRPRPRPEGFPRP,-0.078

row,Sequence,shrunken log2 fold change
1,RRIRHRPPRLPRPRPRPDMCPRP,-0.173
2,RRIRFRPPRLPRPRPRPRVYPRP,-0.217
3,RRIRFRPPRLPRPRPRPSLPPRP,0.0593
4,RRIRQRPPRLPRPRPRPLDRPRP,0.0981
5,RRIRIRPPRLPRPRPRPPHFPRP,-0.138
6,RRIRERPPRLPRPRPRPGGEPRP,0.127
7,RRIRHRPPRLPRPRPRPDAHPRP,-0.119
8,RRIRSRPPRLPRPRPRPMNRPRP,-0.378
9,RRIRQRPPRLPRPRPRPPATPRP,0.452
10,RRIRDRPPRLPRPRPRPKRVPRP,-0.0521
11,RRIRKRPPRLPRPRPRPWIFPRP,0.287
12,RRIRVRPPRLPRPRPRPKEAPRP,-0.0421
13,RRIRERPPRLPRPRPRPTSQPRP,-0.235
14,RRIRKRPPRLPRPRPRPFDVPRP,0.0305
15,RRIRHRPPRLPRPRPRPDVYPRP,0.0592
16,RRIRVRPPRLPRPRPRPVLNPRP,-0.2
17,RRIRWRPPRLPRPRPRPVHTPRP,0.627
18,RRIRFRPPRLPRPRPRPEVYPRP,0.000414
19,RRIRNRPPRLPRPRPRPFWAPRP,0.0267
20,RRIRNRPPRLPRPRPRPAYNPRP,-0.259
21,RRIRKRPPRLPRPRPRPPTRPRP,1.49
22,RRIRGRPPRLPRPRPRPNTNPRP,0.256
23,RRIRDRPPRLPRPRPRPIEYPRP,-0.029
24,RRIRGRPPRLPRPRPRPTQVPRP,0.353
25,RRIRNRPPRLPRPRPRPARMPRP,0.991

row,Sequence,shrunken log2 fold change
1,RRIRNRPPRLPRPRPRPVTCPRP,-0.45
2,RRIRQRPPRLPRPRPRPCEGPRP,-0.000921
3,RRIRPRPPRLPRPRPRPYPMPRP,-0.0996
4,RRIRHRPPRLPRPRPRPCLVPRP,0.214
5,RRIRSRPPRLPRPRPRPQPMPRP,0.128
6,RRIRMRPPRLPRPRPRPLQWPRP,0.104
7,RRIRIRPPRLPRPRPRPWSSPRP,-0.1
8,RRIRCRPPRLPRPRPRPTKMPRP,-0.301
9,RRIRVRPPRLPRPRPRPHHLPRP,-0.24
10,RRIRIRPPRLPRPRPRPHEKPRP,-0.123
11,RRIRFRPPRLPRPRPRPLPGPRP,0.403
12,RRIRTRPPRLPRPRPRPYVYPRP,-1.18
13,RRIRGRPPRLPRPRPRPSESPRP,0.504
14,RRIRNRPPRLPRPRPRPCDCPRP,0.0143
15,RRIRGRPPRLPRPRPRPFHAPRP,-0.13
16,RRIRKRPPRLPRPRPRPKWGPRP,0.594
17,RRIRPRPPRLPRPRPRPETEPRP,0.344
18,RRIRSRPPRLPRPRPRPAGMPRP,0.223
19,RRIRHRPPRLPRPRPRPQIHPRP,-0.46
20,RRIRVRPPRLPRPRPRPPSLPRP,1.99
21,RRIRRRPPRLPRPRPRPDSKPRP,-0.0649
22,RRIRGRPPRLPRPRPRPRITPRP,0.792
23,RRIRPRPPRLPRPRPRPAGYPRP,-0.189
24,RRIRFRPPRLPRPRPRPPLDPRP,0.461
25,RRIRNRPPRLPRPRPRPANSPRP,-0.153

row,Sequence,shrunken log2 fold change
1,RRIRPRPPRLPRPRPRPRHMPRP,0.116
2,RRIRSRPPRLPRPRPRPTCCPRP,0.164
3,RRIRDRPPRLPRPRPRPMFQPRP,-0.0111
4,RRIRYRPPRLPRPRPRPACKPRP,-0.0277
5,RRIRNRPPRLPRPRPRPYKYPRP,-0.369
6,RRIRWRPPRLPRPRPRPDCVPRP,0.197
7,RRIRERPPRLPRPRPRPTCCPRP,-0.0839
8,RRIRDRPPRLPRPRPRPIEIPRP,-0.298
9,RRIRQRPPRLPRPRPRPYTLPRP,0.0232
10,RRIRCRPPRLPRPRPRPAYGPRP,0.13
11,RRIRERPPRLPRPRPRPDVQPRP,-0.0408
12,RRIRHRPPRLPRPRPRPDSAPRP,-0.216
13,RRIRHRPPRLPRPRPRPASVPRP,-0.00985
14,RRIRRRPPRLPRPRPRPVSWPRP,0.849
15,RRIRGRPPRLPRPRPRPNIQPRP,0.398
16,RRIRYRPPRLPRPRPRPLFGPRP,-0.0957
17,RRIRPRPPRLPRPRPRPDWTPRP,-0.063
18,RRIRDRPPRLPRPRPRPYMKPRP,-0.152
19,RRIRTRPPRLPRPRPRPQPPPRP,0.357
20,RRIRPRPPRLPRPRPRPFPLPRP,-0.332
21,RRIRYRPPRLPRPRPRPFGKPRP,-0.0625
22,RRIRIRPPRLPRPRPRPDSTPRP,0.00478
23,RRIRDRPPRLPRPRPRPAGVPRP,0.25
24,RRIRMRPPRLPRPRPRPPGCPRP,0.451
25,RRIRLRPPRLPRPRPRPGWNPRP,0.000784
